According to patent US7754689B2, “Finger-1 peptide analogs of the TGF-β superfamily” (Wyeth LLC, priority 2006, dated 2010):
Values belong to the molecule of their own block, whether it stands above or below them. No end group written: not given here.

Legend:
[1] = molecular target: T1, GDF-9 (Homo sapiens, UniProt O60383); assay: Affinity column chromatography, capture and elution of GDF-9; type: binding
T1 sequence (O60383 320-454): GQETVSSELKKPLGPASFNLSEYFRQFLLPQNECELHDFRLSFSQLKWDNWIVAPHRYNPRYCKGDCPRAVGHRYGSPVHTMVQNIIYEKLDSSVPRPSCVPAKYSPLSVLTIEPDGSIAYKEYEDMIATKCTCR
Description: (§1) BMP-12 was immobilized on NHS-activated Sepharose™ beads at a ratio of about 20 mg:4 mL and the resulting media combined with water or neutral saline buffer to prepare a column. CHO-conditioned media augmented with 1.2 M NaCl was loaded onto the column. In some cases, the media was preconcentrated with respect to BMP before loading. The column was washed with 15 CV (column volumes) of 1.2 M NaCl in 40 mM Na2HPO4 at pH 7.2, followed by 0.5 M arginine/0.5 M NaCl in 20 mM Tris at pH 7.5 (15 CV) and a low salt wash (50 mM ammonium acetate at pH 7, 15 CV). […] Finally, the column was eluted with 5CV of the acetic acid solution with 6M guanidine hydrochloride (GuHCl).
A lower molecular weight contaminant was also present.

[2] = molecular target: T2, BMP-3 (Homo sapiens, UniProt P12645); assay: Affinity column chromatography, capture and elution of BMP-3; type: binding; conditions: for capture of BMP-3 by column with immobilized ligand: CHO-conditioned media with 1.2 M NaCl (high salt) load; for elution of BMP-3 from column with immobilized ligand: washes, then gradient to 50 mM acetic acid pH 3, then 6M GuHCl
T2 construct: a propeptide fragment copurifies along with the mature protein; made in house; host or cells: CHO cells (conditioned medium)
T2 sequence (P12645 363-472): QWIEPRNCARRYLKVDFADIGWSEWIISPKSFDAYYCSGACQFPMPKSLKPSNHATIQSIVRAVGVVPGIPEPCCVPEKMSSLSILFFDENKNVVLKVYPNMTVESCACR
Description: as §1
The eluate was analyzed using HPLC.
4 mL of the resulting resin (1.6×2.0 cm) was used to prepare a column. The column was loaded with BMP-3 and eluted as in Example 1.

[3] = molecular target: T3, BMP-12 (Homo sapiens, UniProt Q7Z4P5); assay: Affinity column chromatography, capture and elution of BMP-12; type: binding; conditions: for capture of BMP-12 by column with immobilized ligand: high salt / high ionic strength load; for elution of BMP-12 from column with immobilized ligand: washes, then gradient to 50 mM acetic acid pH 3, then 6M GuHCl
T3 sequence (Q7Z4P5 322-450): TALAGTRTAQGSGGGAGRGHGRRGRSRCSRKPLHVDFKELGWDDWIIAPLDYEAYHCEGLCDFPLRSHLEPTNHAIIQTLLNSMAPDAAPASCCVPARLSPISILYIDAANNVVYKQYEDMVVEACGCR
Description: as §1
BMP-12 was loaded and eluted from a BMP-12 affinity column as in Example 1.
BMP-12 was purified using a column prepared with the BMP-12 wild type peptide described in Example 7.

[4] = molecular target: T4, BMP-12 (UniProt Q7Z4P5 322-450, limits assumed); assay: peptide resin, filter plate; load 4: 25 mM MES pH 6.0
T4 construct: also called BMP12/GDF7
T4 sequence (looked up): T3 sequence (Q7Z4P5 322-450)
Description: (§2) The coupled resins, plus an unconjugated resin for use as a control, were suspended in 16% ethanol, 150 mM NaCl, and 20 mM Tris buffer at pH 7.5 at a 25% v/v ratio (e.g., 25% ethanol, 75% Tris buffer). A Tecan liquid-handling robot was employed to aliquot 200 μL of each slurry into one of eight rows of a 96 well polystyrene filter plate (0.45 μm hydrophilic filters, Whatman catalog number 770-1806). Spinning at 1200 g for 3 min removed the liquid phase, leaving 50 μL of wet resin on the filters. The resins were then equilibrated with the loading buffers listed in Table 6 (K is a coefficient characterizing the strength of protein binding to a particular resin in a particular buffer). […] The resins were loaded by transferring 150 μL from the load plate to the filter plate and then incubating 20 min on a shaking platform to facilitate binding. The filter plate was spun down and the filtrate collected in a 96 well UV plate. The protein concentration in the filtrate, or flow-through, was calculated as $(A280-A320)/1.3$. The filter plate was then washed with 150 μL of 100 mM acetic acid, followed by 150 μL of 4M guanidine-HCl and 50 mM sodium acetate at pH 4.0. The protein concentration was measured in the new filtrate as described above. […] Flow-through and acetic acid elution samples from column 4 of the plate (loaded with MES pH 6) were analyzed on a gel (FIG. 14).

[5] = molecular target: T4, BMP-12; assay: peptide resin, filter plate; load 10: 50 mM Tris, 0.1 M NaCl, 40% MPD, pH 8.0
Description: as §2

[6] = molecular target: T4, BMP-12; assay: peptide resin, filter plate; load 5: 25 mM HEPES pH 7.0
Description: as §2

[7] = molecular target: T4, BMP-12; assay: peptide resin, filter plate; load 6: 1M CHES pH 9.7
Description: as §2

[8] = molecular target: T4, BMP-12; assay: peptide resin, filter plate; load 3: 25 mM Na Acetate pH 5.0
Description: as §2

[9] = molecular target: T4, BMP-12; assay: peptide resin, filter plate; load 1: 50 mM Acetic Acid, 0.1 M NaCl, pH 2.9
Description: as §2

[10] = molecular target: T4, BMP-12; assay: peptide resin, filter plate; load 2: 50 mM Acetic Acid, 0.1 M NaCl, pH 4.0
Description: as §2

[11] = molecular target: T4, BMP-12; assay: peptide resin, filter plate; load 11: 50 mM Tris, 0.25 M NaCl, 30% MPD, pH 8.0
Description: as §2

[12] = molecular target: T4, BMP-12; assay: peptide resin, filter plate; load 12: 50 mM Tris, 0.1 M NaCl, 20% MPD, pH 8.0
Description: as §2

capture of GDF-9 by column with immobilized ligand ([1]; high salt solution load): effectively captured
capture of BMP-3 by column with immobilized ligand [2]: effectively captured
capture of BMP-12 by column with immobilized ligand [3]: effectively captured
elution of BMP-12 from column with immobilized ligand [3]: eluted with acetic acid
Molecule: SDVGWNDWIVAPPGYHAFYCHGEK [SEQ ID NO: 1]
elution of GDF-9 from column with immobilized ligand [1]: eluted with both 500 mM arginine and acetic acid
elution of BMP-3 from column with immobilized ligand [2]: eluted, along with a propeptide fragment, in acetic acid

capture of BMP-3 by column with immobilized ligand [2]: effectively captured
effectiveness of immobilized ligand compared with the BMP-2 mutant ([2]; in general): less effective than the BMP-2 mutant
elution of BMP-3 from column with immobilized ligand [2]: eluted in acetic acid
capture of BMP-12 by column with immobilized ligand [3]: effectively captured
elution of BMP-12 from column with immobilized ligand [3]: eluted with acetic acid
Molecule: KELGWDDWIIAPLDYEAYHCEGLC [SEQ ID NO: 2]

100 mM HAc elution K [4]: 1
100 mM HAc elution conc [4]: 0.32 mg/mL
4M Gnd, 50 mM NaAc pH 4 Strip Conc [4]: 0.07 mg/ml
Flow-through K [4]: 47
Flow-through conc [4]: 0.029 mg/mL
Flow-through K [5]: 0
Flow-through conc [5]: 0.505 mg/mL
100 mM HAc elution K [6]: 1
100 mM HAc elution conc [6]: 0.249 mg/mL
4M Gnd, 50 mM NaAc pH 4 Strip Conc [6]: 0.068 mg/ml
Flow-through K [6]: 6
Flow-through conc [6]: 0.162 mg/mL
Flow-through K [7]: -1
Flow-through conc [7]: 0.71 mg/mL
100 mM HAc elution K [8]: 1
100 mM HAc elution conc [8]: 0.296 mg/mL
4M Gnd, 50 mM NaAc pH 4 Strip Conc [8]: 0.1 mg/ml
Flow-through K [8]: 18
Flow-through conc [8]: 0.07 mg/mL
100 mM HAc elution K [9]: 3
100 mM HAc elution conc [9]: 0.154 mg/mL
4M Gnd, 50 mM NaAc pH 4 Strip Conc [9]: 0.135 mg/ml
Flow-through K [9]: 7
Flow-through conc [9]: 0.15 mg/mL
100 mM HAc elution K [10]: 3
100 mM HAc elution conc [10]: 0.208 mg/mL
4M Gnd, 50 mM NaAc pH 4 Strip Conc [10]: 0.162 mg/ml
Flow-through K [10]: 25
Flow-through conc [10]: 0.052 mg/mL
Flow-through K [11]: 0
Flow-through conc [11]: 0.515 mg/mL
Flow-through K [12]: 0
Flow-through conc [12]: 0.486 mg/mL
B1: BMP2 C-trunc_2 peptide 746 (peptide)
peptide: Ac-LYVSDVGWNDWIVK
modifications: not fully specified (residue 3); printed as Ac-LYV**SDVGWNDWIVK; also: ** after V3 not explained
